# Laboratory results as given in PMC3615143.
# Target: Glut1 (UniProt P11166)
# Test: Flag IP, HA-TXNIP blot
# Conditions: reference: HA-TXNIP wild type, 2DG-treated cells; sites S308
substance,measurement,value
"TXNIP (from UniProt Q9H3M7) HA-TXNIP S308A, 2DG-treated cells",binding against the reference,stronger
